Earlier results on one substance are cited in publication PMC10368991.

Usually Kd stands for a measure of binding affinity in units of concentration.

The target in the data set is LolB (Escherichia coli) (UniProt P61320).
LolB (Escherichia coli), sequence (P61320 22-207): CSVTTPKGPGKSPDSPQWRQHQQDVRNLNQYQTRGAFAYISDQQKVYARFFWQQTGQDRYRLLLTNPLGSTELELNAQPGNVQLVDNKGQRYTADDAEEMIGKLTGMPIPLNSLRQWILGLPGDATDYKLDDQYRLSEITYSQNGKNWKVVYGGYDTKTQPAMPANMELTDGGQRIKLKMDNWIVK

LolA, sequence (P61316 22-203): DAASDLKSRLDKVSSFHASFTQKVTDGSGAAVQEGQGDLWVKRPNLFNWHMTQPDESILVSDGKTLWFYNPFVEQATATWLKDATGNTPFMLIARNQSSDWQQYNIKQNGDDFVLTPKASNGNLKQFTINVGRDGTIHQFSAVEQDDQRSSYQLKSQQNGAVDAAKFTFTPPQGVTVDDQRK

With LolA (from UniProt P61316), the equilibrium dissociation constant (Kd) was 31.5 µM.
